{"source": "paper PMC11079029", "about": "“Intramolecular autoinhibition regulates the selectivity of PRPF40A tandem WW domains for proline-rich motifs” (Nature Communications, 2024)", "data": [{"system": "GFP-tagged PRPF40A-Nter-MUT", "test": "SILAC GFP-immunoprecipitation with quantitative mass spectrometry, mutant construct", "type": "binding, human (Hela cells)", "details": "quantitative MS, Hela cells, protein by gene name", "description": "The PRPF40A N-terminal region (isoform 2, residues 1-221) was PCR-amplified from RPE1 cDNA (ATCC, Cat# CRL-4000) cDNA. The sequence was amplified in two fragments and both fragments were combined by overhang. All PCRs were carried out using Q5 Polymerase (NEB) according to manufacturer’s protocol. The resulting PRPF40A N-terminal region was cloned into a GFP-expressing pcDNA5 vector (see pcDNA5 GFP vector in ref. [28]) using Q5 Site-Directed Mutagenesis Kit (NEB). Nter-MUT, containing the PPVP/PALPP motifs changed to AAAA/AAAAA, was obtained by mutating the N-ter-WW12-containing plasmid with Q5 site-directed mutagenesis. Plasmids were transformed into DH5alpha chemically competent cells. After culturing, DNA isolation was performed with either ZymoPURE Plasmid Miniprep Kit (Zymo Research) or QIAGEN Plasmid Plus Midi Kit (Qiagen). The sequence was confirmed by Sanger Sequencing (GATC Eurofins). All used oligonucleotides are shown in Supplementary Table 6.\nHela cells (ATCC, Cat# CCL-2, RRID:CVCL_0030) were cultured in DMEM SILAC medium (Thermo Fisher) supplemented with 10% filtered FBS (Sigma-Aldrich) and 1% penicillin-streptomycin (Thermo-Fisher). The SILAC medium contains either light (Arg0, Lys0), medium (Arg6, Lys4) or heavy (Arg10, Lys8) isotopes (Cambridge Isotopes Laboratories). Hela cells were cultivated for 14 days in SILAC medium to assure sufficient isotope incorporation. For transfection, 7 × 10^6 Hela cells were seeded in a 15 cm culture dish in 20 ml of respective SILAC medium and grown for 24 h. The cells were then transfected with 20 µg of plasmids expressing either GFP (Control), GFP-tagged N-ext-WW12 or GFP-tagged-N-ext-WW12-MUT utilizing 64 µl FuGENE (Promega) (ratio 1:3.2), according to manufacturer’s protocol.\n24 h post-transfection, cells were washed twice in ice-cold PBS and harvested in 1 ml mRIPA buffer (50 mM Tris, 150 mM NaCl, 1 mM EDTA, 1% NP-40, 0.1% Na-deoxycholate), supplemented with 2 µl Turbo-DNase (Thermo Fisher) and 3 µl protease-inhibitor cocktail cOmplete (Sigma-Aldrich). Cell lysates were cleared by centrifugation at 16,000 × g, 4 °C, 15 min and concentration was measured using Pierce BCA Protein Assay kit (Thermo Scientific). The expressed constructs were pulled down by incubating 2.5 mg of lysate with 20 μl GFP-nanobody agarose beads (ChromoTek, GTA-20) for 1 h at 4 °C under constant agitation. Subsequently, beads were washed three times with mRIPA buffer without supplements, then eluted in 1X NuPAGE LDS sample buffer (Thermo Scientific). To detach the proteins from the beads, the eluate was heated to 70 °C for 10 min To evaluate the success of the immunoprecipitation, input (1%) and IP samples were analyzed on a NuPAGE 4–12% Bis-Tris-Acrylamide gel (Thermo Fisher) using NuPAGE MOPS SDS running buffer (Thermo Fisher). Proteins were stained using Sypro Ruby protein gel stain (Thermo Fisher) according to manufacturer’s protocol.\nThe eluted proteins of three SILAC states (light, medium, heavy) were combined. The proteins were then reduced in DTT, alkylated in iodoacetamide, and purified using the SP3 paramagnetic bead approach. This was followed by overnight enzymatic digestion using trypsin (1 µg per sample) in 50 mM ammonium bicarbonate at 37 °C. The peptide solution was then purified by solid phase extraction in C18 StageTips[99].\nPeptides were separated by online reverse phase liquid chromatography using the EASY-nLC 1000 system (Thermo Scientific) in a 30-cm analytical column (inner diameter: 75 μm; heated at 50 °C) packed in-house with ReproSil-Pur 120 C18-AQ 1.9-μm beads (Dr. Maisch GmbH). The gradient separation was performed through a 105-min non-linear gradient of 1.6–32% acetonitrile with 0.1% formic acid at a nanoflow rate of 225 nl/min. The eluted peptides were sprayed directly by electrospray ionization into a Q Exactive Plus Orbitrap mass spectrometer (Thermo Scientific). […]", "values": [{"molecule": "DIAPH2 (protein, UniProt O60879 1-1101, looked up) Protein diaphanous homolog 2: MEQPGAAASGAGGGSEEPGGGRSNKRSAGNRAANEEETKNKPKLNIQIKTLADDVRDRITSFRKSTVKKEKPLIQHPIDSQVAMSEFPAAQPLYDERSLNLSEKEVLDLFEKMMEDMNLNEEKKAPLRNKDFTTKREMVVQYISATAKSGGLKNSKHECTLSSQEYVHELRSGISDEKLLNCLESLRVSLTSNPVSWVNNFGHEGLGLLLDELEKLLDKKQQENIDKKNQYKLIQCLKAFMNNKFGLQRILGDERSLLLLARAIDPKQPNMMTEIVKILSAICIVGEENILDKLLGAITTAAERNNRERFSPIVEGLENQEALQLQVACMQFINALVTSPYELDFRIHLRNEFLRSGLKTMLPDLKEKENDELDIQLKVFDENKEDDLTELSHRLNDIRAEMDDMNEVYHLLYNMLKDTAAENYFLSILQHFLLIRNDYYIRPQYYKIIEECVSQIVLHCSGMDPDFKYRQRLDIDLTHLIDSCVNKAKVEESEQKAAEFSKKFDEEFTARQEAQAELQKRDEKIKELEAEIQQLRTQAQVLSSSSGIPGPPAAPPLPGVGPPPPPPAPPLPGGAPLPPPPPPLPGMMGIPPPPPPPLLFGGPPPPPPLGGVPPPPGISLNLPYGMKQKKMYKPEVSMKRINWSKIEPTELSENCFWLRVKEDKFENPDLFAKLALNFATQIKVQKNAEALEEKKTGPTKKKVKELRILDPKTAQNLSIFLGSYRMPYEDIRNVILEVNEDMLSEALIQNLVKHLPEQKILNELAELKNEYDDLCEPEQFGVVMSSVKMLQPRLSSILFKLTFEEHINNIKPSIIAVTLACEELKKSESFNRLLELVLLVGNYMNSGSRNAQSLGFKINFLCKIRDTKSADQKTTLLHFIADICEEKYRDILKFPEELEHVESASKVSAQILKSNLASMEQQIVHLERDIKKFPQAENQHDKFVEKMTSFTKTAREQYEKLSTMHNNMMKLYENLGEYFIFDSKTVSIEEFFGDLNNFRTLFLEAVRENNKRREMEEKTRRAKLAKEKAEQEKLERQKKKKQLIDINKEGDETGVMDNLLEALQSGAAFRDRRKRIPRNPDNRRVPLERSRSRHNGAISSK", "Immunoprecipitation enrichment MUT vs WT, log2 FC": 1.317}, {"molecule": "SF3A1 (protein, UniProt Q15459 2-793, looked up) Splicing factor 3A subunit 1: PAGPVQAVPPPPPVPTEPKQPTEEEASSKEDSAPSKPVVGIIYPPPEVRNIVDKTASFVARNGPEFEARIRQNEINNPKFNFLNPNDPYHAYYRHKVSEFKEGKAQEPSAAIPKVMQQQQQTTQQQLPQKVQAQVIQETIVPKEPPPEFEFIADPPSISAFDLDVVKLTAQFVARNGRQFLTQLMQKEQRNYQFDFLRPQHSLFNYFTKLVEQYTKILIPPKGLFSKLKKEAENPREVLDQVCYRVEWAKFQERERKKEEEEKEKERVAYAQIDWHDFVVVETVDFQPNEQGNFPPPTTPEELGARILIQERYEKFGESEEVEMEVESDEEDDKQEKAEEPPSQLDQDTQVQDMDEGSDDEEEGQKVPPPPETPMPPPLPPTPDQVIVRKDYDPKASKPLPPAPAPDEYLVSPITGEKIPASKMQEHMRIGLLDPRWLEQRDRSIREKQSDDEVYAPGLDIESSLKQLAERRTDIFGVEETAIGKKIGEEEIQKPEEKVTWDGHSGSMARTQQAAQANITLQEQIEAIHKAKGLVPEDDTKEKIGPSKPNEIPQQPPPPSSATNIPSSAPPITSVPRPPTMPPPVRTTVVSAVPVMPRPPMASVVRLPPGSVIAPMPPIIHAPRINVVPMPPSAPPIMAPRPPPMIVPTAFVPAPPVAPVPAPAPMPPVHPPPPMEDEPTSKKLKTEDSLMPEEEFLRRNKGPVSIKVQVPNMQDKTEWKLNGQVLVFTLPLTDQVSVIKVKIHEATGMPAGKQKLQYEGIFIKDSNSLAYYNMANGAVIHLALKERGGRKK", "Immunoprecipitation enrichment MUT vs WT, log2 FC": 1.381}, {"molecule": "SF3A2 (protein, UniProt Q15428 1-464, looked up) Splicing factor 3A subunit 2: MDFQHRPGGKTGSGGVASSSESNRDRRERLRQLALETIDINKDPYFMKNHLGSYECKLCLTLHNNEGSYLAHTQGKKHQTNLARRAAKEAKEAPAQPAPEKVKVEVKKFVKIGRPGYKVTKQRDSEMGQQSLLFQIDYPEIAEGIMPRHRFMSAYEQRIEPPDRRWQYLLMAAEPYETIAFKVPSREIDKAEGKFWTHWNRETKQFFLQFHFKMEKPPAPPSLPAGPPGVKRPPPPLMNGLPPRPPLPESLPPPPPGGLPLPPMPPTGPAPSGPPGPPQLPPPAPGVHPPAPVVHPPASGVHPPAPGVHPPAPGVHPPAPGVHPPTSGVHPPAPGVHPPAPGVHPPAPGVHPPAPGVHPPAPGVHPPPSAGVHPQAPGVHPAAPAVHPQAPGVHPPAPGMHPQAPGVHPQPPGVHPSAPGVHPQPPGVHPSNPGVHPPTPMPPMLRPPLPSEGPGNIPPPPPTN", "Immunoprecipitation enrichment MUT vs WT, log2 FC": 1.275}, {"molecule": "SF3A3 (protein, UniProt Q12874 1-501, looked up) Splicing factor 3A subunit 3: METILEQQRRYHEEKERLMDVMAKEMLTKKSTLRDQINSDHRTRAMQDRYMEVSGNLRDLYDDKDGLRKEELNAISGPNEFAEFYNRLKQIKEFHRKHPNEICVPMSVEFEELLKARENPSEEAQNLVEFTDEEGYGRYLDLHDCYLKYINLKASEKLDYITYLSIFDQLFDIPKERKNAEYKRYLEMLLEYLQDYTDRVKPLQDQNELFGKIQAEFEKKWENGTFPGWPKETSSALTHAGAHLDLSAFSSWEELASLGLDRLKSALLALGLKCGGTLEERAQRLFSTKGKSLESLDTSLFAKNPKSKGTKRDTERNKDIAFLEAQIYEYVEILGEQRHLTHENVQRKQARTGEEREEEEEEQISESESEDEENEIIYNPKNLPLGWDGKPIPYWLYKLHGLNINYNCEICGNYTYRGPKAFQRHFAEWRHAHGMRCLGIPNTAHFANVTQIEDAVSLWAKLKLQKASERWQPDTEEEYEDSSGNVVNKKTYEDLKRQGLL", "Immunoprecipitation enrichment MUT vs WT, log2 FC": 1.179}, {"molecule": "MTREX (protein, UniProt P42285 2-1042, looked up) Exosome RNA helicase MTR4: ADAFGDELFSVFEGDSTTAAGTKKDKEKDKGKWKGPPGSADKAGKRFDGKLQSESTNNGKNKRDVDFEGTDEPIFGKKPRIEESITEDLSLADLMPRVKVQSVETVEGCTHEVALPAEEDYLPLKPRVGKAAKEYPFILDAFQREAIQCVDNNQSVLVSAHTSAGKTVCAEYAIALALREKQRVIFTSPIKALSNQKYREMYEEFQDVGLMTGDVTINPTASCLVMTTEILRSMLYRGSEVMREVAWVIFDEIHYMRDSERGVVWEETIILLPDNVHYVFLSATIPNARQFAEWICHLHKQPCHVIYTDYRPTPLQHYIFPAGGDGLHLVVDENGDFREDNFNTAMQVLRDAGDLAKGDQKGRKGGTKGPSNVFKIVKMIMERNFQPVIIFSFSKKDCEAYALQMTKLDFNTDEEKKMVEEVFSNAIDCLSDEDKKLPQVEHVLPLLKRGIGIHHGGLLPILKETIEILFSEGLIKALFATETFAMGINMPARTVLFTNARKFDGKDFRWISSGEYIQMSGRAGRRGMDDRGIVILMVDEKMSPTIGKQLLKGSADPLNSAFHLTYNMVLNLLRVEEINPEYMLEKSFYQFQHYRAIPGVVEKVKNSEEQYNKIVIPNEESVVIYYKIRQQLAKLGKEIEEYIHKPKYCLPFLQPGRLVKVKNEGDDFGWGVVVNFSKKSNVKPNSGELDPLYVVEVLLRCSKESLKNSATEAAKPAKPDEKGEMQVVPVLVHLLSAISSVRLYIPKDLRPVDNRQSVLKSIQEVQKRFPDGIPLLDPIDDMGIQDQGLKKVIQKVEAFEHRMYSHPLHNDPNLETVYTLCEKKAQIAIDIKSAKRELKKARTVLQMDELKCRKRVLRRLGFATSSDVIEMKGRVACEISSADELLLTEMMFNGLFNDLSAEQATALLSCFVFQENSSEMPKLTEQLAGPLRQMQECAKRIAKVSAEAKLEIDEETYLSSFKPHLMDVVYTWATGATFAHICKMTDVFEGSIIRCMRRLEELLRQMCQAAKAIGNTELENKFAEGITKIKRDIVFAASLYL", "Immunoprecipitation enrichment MUT vs WT, log2 FC": 1.198}]}]}
